Measured values taken from article PMC1781754 (2000).

Target: T1, IL-5 receptor alpha/beta (Homo sapiens, UniProt Q01344)
T1 chain 1: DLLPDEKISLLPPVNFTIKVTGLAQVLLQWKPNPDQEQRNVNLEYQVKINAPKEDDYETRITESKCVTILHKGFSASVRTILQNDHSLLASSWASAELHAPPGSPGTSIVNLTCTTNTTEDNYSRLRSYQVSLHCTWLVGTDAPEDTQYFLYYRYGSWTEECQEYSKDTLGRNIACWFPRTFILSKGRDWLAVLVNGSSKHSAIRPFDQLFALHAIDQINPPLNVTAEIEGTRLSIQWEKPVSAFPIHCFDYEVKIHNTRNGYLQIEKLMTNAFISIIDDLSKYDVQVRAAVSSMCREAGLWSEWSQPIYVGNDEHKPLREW
T1 chain 2: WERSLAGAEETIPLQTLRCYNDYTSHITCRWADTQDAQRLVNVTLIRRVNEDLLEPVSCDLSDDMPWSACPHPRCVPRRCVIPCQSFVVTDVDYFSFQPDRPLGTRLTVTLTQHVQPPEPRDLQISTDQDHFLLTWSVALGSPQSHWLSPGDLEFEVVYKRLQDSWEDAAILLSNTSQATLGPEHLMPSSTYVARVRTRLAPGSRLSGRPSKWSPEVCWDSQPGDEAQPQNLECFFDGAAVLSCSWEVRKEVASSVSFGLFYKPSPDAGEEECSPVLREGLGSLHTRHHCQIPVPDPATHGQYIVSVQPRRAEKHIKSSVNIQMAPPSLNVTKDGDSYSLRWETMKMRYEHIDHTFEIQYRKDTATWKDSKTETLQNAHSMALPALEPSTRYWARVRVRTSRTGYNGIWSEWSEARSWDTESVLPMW
Assay: radioligand displacement

B1: IL-5 (protein)
chain: MEIPMSTVVKETLTQLSAHRALLTSNETMRLPVPTHKNHQLCIGEIFQGLDILKNQTVRGGTVEMLFQNLSLIKKYIDRQKEKCGEERRRTRQFLDYLQEFLGVMSTEWAMEG
Q: Which Ki does the source give for B1 here?
A: 0.17 nM

B2: IL-5 (protein)
chain: IPKQSATLRALVRETLTLLSTHRTLLKGNETLRISVPAHKNHQLCIEEIFQGIDTLKNQTTQGEALATLFQNLSLIKKHIDLQKQKCGEERRRVKQFLDYLQEFLAVINTEWTIEG
Q: With B2 as the binder, how does the Ki read?
A: 0.75 nM
